1 substance from paper PMC8833744, “Strategic Decoy Peptides Interfere with MSI1/AGO2 Interaction to Elicit Tumor Suppression Effects” (Cancers, 2022) can be followed below.

This experiment addresses recombinant His-tagged AGO2 (UniProt Q9UKV8). In words: SPR; Biacore T200; His-AGO2 immobilised on a CM5 chip by amine coupling (~7000 RU); peptides 20 to 1280 nM in HBS-P (10 mM HEPES, 150 mM NaCl, 0.005% T20, pH 7.4), 30 µL/min; Langmuir 1:1 model.

Sequence of recombinant His-tagged AGO2 (Q9UKV8 whole entry): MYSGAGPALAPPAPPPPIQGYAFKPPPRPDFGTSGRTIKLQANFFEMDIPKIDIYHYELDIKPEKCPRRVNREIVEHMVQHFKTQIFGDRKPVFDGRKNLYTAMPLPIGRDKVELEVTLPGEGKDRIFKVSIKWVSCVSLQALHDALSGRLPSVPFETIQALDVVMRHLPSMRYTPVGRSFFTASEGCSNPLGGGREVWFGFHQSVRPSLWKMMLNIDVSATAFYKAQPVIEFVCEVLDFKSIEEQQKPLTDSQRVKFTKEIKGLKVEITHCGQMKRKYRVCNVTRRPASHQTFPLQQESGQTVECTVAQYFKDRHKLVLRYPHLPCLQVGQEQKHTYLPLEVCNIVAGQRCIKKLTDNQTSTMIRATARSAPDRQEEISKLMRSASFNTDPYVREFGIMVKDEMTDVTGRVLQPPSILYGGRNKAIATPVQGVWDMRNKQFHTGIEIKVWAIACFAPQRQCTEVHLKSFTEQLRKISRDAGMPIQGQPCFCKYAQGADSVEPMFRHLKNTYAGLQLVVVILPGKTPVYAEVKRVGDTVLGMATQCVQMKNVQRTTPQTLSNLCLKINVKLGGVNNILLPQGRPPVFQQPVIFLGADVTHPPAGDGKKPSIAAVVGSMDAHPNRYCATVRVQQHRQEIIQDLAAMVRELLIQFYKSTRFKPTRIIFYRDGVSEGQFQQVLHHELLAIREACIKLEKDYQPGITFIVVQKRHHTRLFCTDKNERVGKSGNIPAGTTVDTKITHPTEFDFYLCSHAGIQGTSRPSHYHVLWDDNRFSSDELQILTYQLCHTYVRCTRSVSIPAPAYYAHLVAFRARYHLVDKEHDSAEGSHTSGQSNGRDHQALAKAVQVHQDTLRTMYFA

With “negative control peptide (CP) as used in the SPR”, the Kd was 107 µM.
